Source: US8304236B2, “Modified biotin-binding protein” (Japan Tobacco Inc., priority 2008, dated 2012)
Changes are numbered by the printed parent chain. In names and notes the source's numbering stands. Entries after “also recorded” stand apart in the source; their conditions may differ.

What was measured:
[1] = Heat stability of protein structure (soluble protein after heating, SDS-PAGE); assay type: physicochemical; details: heated for 20 minutes
Experimental: 3-8) Heat Stability of HALU TM2 Protein Structure Each of 0.2 μg/μL TM2 mutant solutions (10 μL (2 μg)) was heated at room temperature, 50, 60, 70, 80, 90, or 99° C. for 20 minutes. Then, the solution was centrifuged at 15000 rpm for 10 minutes, and the soluble protein in the supernatant was suspended in the same volume of 2×SDS sample buffer (250 mM Tris-HCl, pH 6.8, 20% 2-mercaptoethanol, 20% SDS, 20% glycerol). The suspension was heated at 95° C. for 10 minutes, followed by SDS-PAGE. The protein bands were detected by CBB staining A standard curve was prepared using a quantitative marker (LMW ELECTROPHORESIS CALIBRATION KIT; Pharmacia Biotech) with Las-3000 (FUJIFILM) to quantify the protein bands.

[2] = Isoelectric focusing electrophoresis (pI observed); assay type: physicochemical; details: pH 3 to 10 gel
Experimental: The isoelectric point of each low-pI TM2 was measured by isoelectric focusing electrophoresis using an XCell SureLock Mini-Cell (Invitrogen). In accordance with the instruction, each low-pI TM2 (500 ng) and an IEF sample buffer (pH 3 to 10 (2×), Invitrogen) were mixed and were added to a polyacrylamide gel (pH 3 to 10, IEF Gel, Invitrogen) at a pH ranging from 3 to 10, followed by electrophoresis at a variable voltage of 100 V for 1 hour, 200 V for 1 hour, and 500 V for 45 minutes in this order.
After the electrophoresis, the gel was shaken in a blotting buffer (0.7% acetic acid) for 10 minutes and then was transferred onto a PVDF membrane at 10 V for 1 hour using an XCell ll Blot Module (Invitrogen). The PVDF membrane was subjected to reaction with anti-TM2 rabbit antibody (PCT/W2006/326260) serving as a primary antibody and with alkaline phosphate-labeled anti-rabbit IgG antibody (BIO-RAD) serving as a secondary antibody, followed by detection of bands with Alkaline Phosphatase Substrate Kit II
The isoelectric point of the high-affinity TM2 was measured by isoelectric focusing electrophoresis using an XCell SureLock Mini-Cell (Invitrogen). […] The electric point of TM2 D40N having replacement of the […] amino acid was higher than that of the wild type TM2 also in the isoelectric focusing electrophoresis.
The isoelectric point of HALU TM2 was measured by isoelectric focusing electrophoresis using an XCell SureLock Mini-Cell (Invitrogen). In accordance with the instruction, bands of each HALU TM2 (4 μg) were detected by CBB staining. […] The observed isoelectric point of TM2 D40N was 9.7, and was reduced to 8.9 after introduction of mutation of R104E and was reduced to 7.3 to 7.5 after further introduction of mutation of K141E.

[3] = tested on: human serum protein; assay: Non-specific adsorption of low-pI TM2 to human serum protein-immobilized magnetic beads; assay type: binding; details: for decrease of adsorption to human serum protein compared to the wild type TM2 / non-specific binding to human serum protein compared to TM2: FIG. 1; for non-specific binding and adsorption, % of that of the wild type TM2: summary of Example 1, paragraphs 1-9) and 1-11); for Non-specific binding of serum protein (%): wild type TM2 = 100
Experimental: In this embodiment, non-specific binding to human serum was investigated as non-specific adsorption of low-pI TM2 to serum protein-immobilized magnetic beads. Specifically, in order to investigate the non-specific binding of low-pI TM2, the amount of low-pI TM2 adsorbed to magnetic beads to which human serum protein was covalently bonded was measured. TM2 K26A, TM2 K73Q, TM2 R104E, TM2 K141E, and TM2 R104EK141E, which were highly expressed in Escherichia coli, were used as the low-pI TM2 to be investigated.
Human serum protein and magnetic beads were bound to each other as follows. Magnetic beads having surfaces coated with carboxyl groups (Dynabeads M-270 Carboxylic Acid, Dynal, 210 μL) were washed with 0.01 N sodium hydroxide (210 μL) for 10 minutes and then with ultrapure water (210 μL) for 10 minutes three times. To the washed magnetic beads, 1-ethyl-3-(3-dimethylaminopropyl)carbodiimide hydrochloride (EDC, PIERCE) dissolved in cooled ultrapure water was added into a final concentration of 0.2 M, and the mixture was shaken at room temperature for 30 minutes. Then, the magnetic beads were washed with cooled ultrapure water (210 μL) and then with 50 mM MES buffer (pH 5.0, 210 μL).
To the magnetic beads, 1 mg/mL human serum protein (CHEMICON, 210 μL) dialyzed with 50 mM MES buffer (pH 5.0) was added. The mixture was shaken at room temperature for 30 minutes to covalently bind the human serum protein to the magnetic beads. The magnetic beads were collected with a magnet to remove the supernatant. The unreacted active groups on the beads were eliminated with 50 mM tris buffer (pH 7.0, 210 μL), and then the magnetic beads were blocked with a PBS buffer (420 μL) containing 0.5% BSA and 0.1% Tween 20. The magnetic beads were suspended in a PBS buffer (210 μL) to obtain human serum protein-immobilized magnetic beads.
The magnetic beads (7 μL) and 0.56 μg/mL of each low-pI TM2 (100 μL) were mixed for reaction at room temperature for 1 hour. The magnetic beads were collected with a magnetic, and the supernatant was removed. After washing with 20 mM potassium phosphate buffer (500 μL) containing 500 mM sodium chloride, the magnetic beads were mixed with 20 μL of 2×SDS sample buffer (250 mM Tris-HCl, pH 6.8, 20% 2-mercaptoethanol, 20% SDS, 20% glycerol), followed by heating at 95° C. for 20 minutes to dissociate the low-pI TM2 from the magnetic beads.
This sample was subjected to SDS-PAGE and then western blotting analysis to determine the amount of the low-pI TM2. Anti-tamavidin 2 rabbit antibody and alkaline phosphatase-labeled anti-rabbit IgG goat antibody were used as the primary antibody and the secondary antibody, respectively. The bands were detected with Alkaline Phosphatase Substrate Kit II <VECTOR Black> (VECTRO) and were quantified with Las-3000 (FUJIFILM).

[4] = Biotin-binding test (Biacore 3000, biotin-LC-BSA immobilized)
Experimental: High-purity BSA (Sigma, 2 mg) and NHS-LC-biotin (Pierce, 1 mg) were dissolved in 50 mM sodium borate (pH 8.0, 1 mL) and were incubated at 4° C. for 2 hours. The solution was put into a dialysis tube (MWCO 6-8,000) and was dialyzed with 50 mM sodium carbonate (pH 6.7) at 4° C. overnight. The resulting biotin-LC-BSA conjugate (MW: 67 kDa, 30 μM) was used as a ligand for a Biacore (registered trademark) biosensor.
Biotin-LC-BSA and BSA serving as a negative control were immobilized on CM5 sensor chips by amine coupling method. The amount for immobilization was adjusted to about 200 RU. The chips to which BSA was immobilized were disposed in flow cells 1 and 3, while the chips to which biotin-LC-BSA was immobilized were disposed in flow cells 2 and 4.
Accordingly, seven step measurement (3.125, 6.25, […], 25, 50, 100, and 200 nM) was conducted from the lowest concentration, without recycling steps. The data of BSA as reference was deducted from the data of BSA-LC-biotin. The measurement was performed at 25° C. The resulting sensorgrams were subjected to reaction kinetics analysis using analysis software BIAevaluation ver. 4.1 with a 1:1 binding model to calculate the binding rate constant (ka) and the dissociation rate constant (kd). The dissociation constant (KD) was determined from kd/ka. In the case where no recycling step is employed, the Rmax (maximum amount of binding analyte) decreases at each measurement. Accordingly, in the analysis, the Rmax was calculated by conducting local fitting for each concentration, and only the data of analyte concentrations that were approximated to the 1:1 binding model was employed.
TM2 and HALU TM2 used as analytes were prepared by purification with 2-iminobiotin agarose in accordance with a common method and dialysis with 20MM KPi (pH 7) overnight. The analytes were each adjusted to about 50 μg/mL in 10 mM acetate buffer (pH 5, Biacore).
The immobilization of the ligand and measurement and analysis of specific interaction with the analytes were conducted as in paragraph 2-7-2).

streptavidin [reference compound]
Thermal stability (temp. at which 50% of protein was lost) [1]: 70 °C

B1: TM2 K26A: TM2 mutant in which lysine at position 26 was replaced with alanine; SEQ ID NO: 4 (protein)
chain: MSDVQSSLTGTWYNELNSKMELTANADGTLTGKYLSKVGDVYVPYPLSGRYNLQPPAGQGVALGWAVSWENSKIHSATTWSGQFFSESSPVILTQWLLSSSTARGDVWESTLVGNDSFTKTAPTEQQIAHAQLHCRAPRLK
modifications: Synthetic TM2 K26A
pI observed [2]: 7.3 to 7.6 | decrease of adsorption to human serum protein compared to the wild type TM2 [3]: 30% | non-specific binding to human serum protein compared to TM2 [3]: significantly low | non-specific binding and adsorption, % of that of the wild type TM2 [3]: about 60% | Non-specific binding of serum protein (%) [3]: 68%

B2: TM2 K73Q: TM2 mutant in which lysine at position 73 was replaced with glutamine; SEQ ID NO: 6 (protein)
chain: B1 chain with A26K, K73Q
modifications: Synthetic TM2 K73Q
pI observed [2]: 7.7 | decrease of adsorption to human serum protein compared to the wild type TM2 [3]: 40% | non-specific binding to human serum protein compared to TM2 [3]: significantly low | non-specific binding and adsorption, % of that of the wild type TM2 [3]: about 60% | Non-specific binding of serum protein (%) [3]: 55%

B3: TM2 K141E: TM2 mutant in which lysine at position 141 was replaced with glutamic acid; SEQ ID NO: 10 (protein)
chain: B1 chain with A26K, K141E
modifications: Synthetic TM2 K141E
pI observed [2]: 6.6 to 7.2 | decrease of adsorption to human serum protein compared to the wild type TM2 [3]: 40% | non-specific binding to human serum protein compared to TM2 [3]: significantly low | non-specific binding and adsorption, % of that of the wild type TM2 [3]: about 60% | Non-specific binding of serum protein (%) [3]: 58%

B4: TM2 D40N: TM2 mutant in which aspartic acid at position 40 was replaced with asparagine; SEQ ID NO: 20 (protein)
chain: B1 chain with A26K, D40N
modifications: Synthetic TM2 D40N
pI observed [2]: 9.7 | biotin-binding ability (affinity) compared to the wild type TM2 [4]: increased; also recorded: enhanced | dissociation from biotin-LC-BSA ([4]; dissociation monitored for 60 minutes): not dissociated

B5: TM2 R104E: TM2 mutant in which arginine at position 104 was replaced with glutamic acid; SEQ ID NO: 8 (protein)
chain: B1 chain with A26K, R104E
modifications: Synthetic TM2 R104E
pI observed [2]: 7.0 to 7.5 | decrease of adsorption to human serum protein compared to the wild type TM2 [3]: 10% | Non-specific binding of serum protein (%) [3]: 90%

B6: TM2 K33TK37A: TM2 mutant, lysine 33 replaced with threonine and lysine 37 with alanine; SEQ ID NO: 12 (protein)
chain: B1 chain with A26K, K33T, K37A
modifications: Synthetic TM2 K33TK37A
pI observed [2]: 6.2

B7: TM2 K33TK37AR104E: TM2 mutant, lysine 33 to threonine, lysine 37 to alanine, arginine 104 to glutamic acid; SEQ ID NO: 14 (protein)
chain: B1 chain with A26K, K33T, K37A, R104E
modifications: Synthetic TM2 K33TK37AR104E
pI observed [2]: 5.9 to 6.0

B8: TM2 K19T: TM2 mutant in which lysine at position 19 is replaced with threonine; SEQ ID NO: 18 (protein)
chain: B1 chain with K19T, A26K
modifications: Synthetic TM2 K19T
pI observed [2]: 6.6 to 7.5
